From patent publication US20100256217A1 (University of Pennsylvania, published 2010)

Target: T1, human CK2β subunit, cloned from HeLa cell cDNA (pcCK2β) (human, UniProt P67870 1-215)
T1 construct: 35S-labeled in vitro translated protein in the in vitro assay; Expressed in transfected 293T cells in the in vivo assay; also called CKβ; CK2 beta
Experiment: in vitro binding assay, 35S-labeled in vitro translated proteins, co-immunoprecipitation with anti-His or anti-CK2β, autoradiography

T1 sequence (P67870 whole entry): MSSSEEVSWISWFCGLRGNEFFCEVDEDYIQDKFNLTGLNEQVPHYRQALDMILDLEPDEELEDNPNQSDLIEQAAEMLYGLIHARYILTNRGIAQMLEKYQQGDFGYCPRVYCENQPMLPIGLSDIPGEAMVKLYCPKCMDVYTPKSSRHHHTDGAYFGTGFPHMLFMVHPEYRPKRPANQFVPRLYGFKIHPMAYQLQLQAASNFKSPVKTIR

B1: West Nile virus capsid protein with a C-terminal polyhistidine tag, encoded by pcWNV C-His (other)
chain: MSKKPGGPGKSRAVNMLKRGMPRVLSLIGLKRAMLSLIDGKGPIRFVLALLAFFRFTAIAPTRAVLDRWRGVNKQTAMKHLLSFKKELGTLTSAINRRSSKQKKRGGKTGIAVMIGLIASVGA
notes: The capsid is its N-terminal part; also called WNV Cp; protein C; not shown: C-terminal polyhistidine tag from the pcDNA3.1 V5/HisA vector
**Q.** Does B1 bind?
**A.** no binding
